Results as given in the Immune Epitope Database (IEDB).

Key:
Experiment in all cases: IEDB peptide-MHC binding, purified MHC/competitive/radioactivity; filed as Kd, often an IC50 or EC50 that approximates it; ≥ and ≤ were set here for values at or beyond the usual limits of such assays
HLA-A*02:06 = biological target: HLA-A*02:06
HLA-A*03:01 = biological target: HLA-A*03:01
HLA-A*11:01 = biological target: HLA-A*11:01
HLA-A*31:01 = biological target: HLA-A*31:01
HLA-A*33:01 = biological target: HLA-A*33:01
HLA-A*68:01 = biological target: HLA-A*68:01
HLA-A*02:03 = biological target: HLA-A*02:03
[1] = source organism: Dengue virus 4 Philippines/H241/1956
[2] = source organism: SARS coronavirus Tor2
[3] = source organism: Vaccinia virus WR
[4] = source organism: Mammarenavirus machupoense
[5] = source organism: Dengue virus 2 Jamaica/1409/1983
[6] = source organism: Lymphocytic choriomeningitis virus (strain Armstrong)

Sequence	Kd (HLA-A*03:01; [3])	Kd (HLA-A*11:01; [3])	Kd (HLA-A*31:01; [3])	Kd (HLA-A*33:01; [3])	Kd (HLA-A*68:01; [3])	other results
MVAGGLLLAA						Kd (HLA-A*02:06; [1]): 19.2 nM
GVVFLHVTY						Kd (HLA-A*03:01; [2]): 8170 nM; Kd (HLA-A*11:01; [2]): 3400 nM; Kd (HLA-A*31:01; [2]): 15300 nM; Kd (HLA-A*33:01; [2]): ≥ 77700 nM; Kd (HLA-A*68:01; [2]): ≥ 60600 nM
RLNNPVILSK	11.7 nM	11.9 nM	1550 nM	≥ 54900 nM	4490 nM	
LLFLNDMGKV						Kd (HLA-A*02:03; [1]): 6.83 nM
KFNDYRKQMY	4820 nM	≥ 22400 nM	196 nM	≥ 59300 nM	≥ 32400 nM	
KINSVKYYGR	1870 nM	135 nM	30.2 nM	2420 nM	5340 nM	
RVAVNKSNK	6.83 nM	11.5 nM	57.7 nM	≥ 52000 nM	147 nM	
KIPIYSHTER	1060 nM	1140 nM	25.8 nM	1190 nM	1530 nM	
FLMAFANQIH						Kd (HLA-A*03:01; [4]): 11800 nM; Kd (HLA-A*11:01; [4]): ≥ 69700 nM; Kd (HLA-A*31:01; [4]): ≥ 70000 nM; Kd (HLA-A*33:01; [4]): ≥ 23800 nM; Kd (HLA-A*68:01; [4]): ≥ 31800 nM
DITFLRPVLK	157 nM	72.1 nM	259 nM	5840 nM	42.3 nM	
LLNKEMYLK						Kd (HLA-A*03:01; [2]): 10.7 nM; Kd (HLA-A*11:01; [2]): 16.9 nM; Kd (HLA-A*31:01; [2]): 155 nM; Kd (HLA-A*33:01; [2]): 6500 nM; Kd (HLA-A*68:01; [2]): 1100 nM
MLIFNVKSK	228 nM	491 nM	≥ 21100 nM	≥ 45800 nM	0.841 nM	
SITPNNLNK	866 nM	25.4 nM	≥ 77900 nM	≥ 77700 nM	1450 nM	
HILHAYCGIK	229 nM	1390 nM	13500 nM	≥ 70000 nM	2740 nM	
FADNDRQDIY	≥ 70100 nM	≥ 46000 nM	≥ 70000 nM	≥ 70000 nM	1250 nM	
LLFMILTVA						Kd (HLA-A*02:03; source organism: Dengue virus 1 Brazil/97-11/1997): 29.3 nM
ASAFFGMSR						Kd (HLA-A*03:01; [2]): 3170 nM; Kd (HLA-A*11:01; [2]): 148 nM; Kd (HLA-A*31:01; [2]): 21.9 nM; Kd (HLA-A*33:01; [2]): ≥ 41500 nM; Kd (HLA-A*68:01; [2]): 197 nM
LACTDPSER	≥ 55100 nM	19900 nM	572 nM	2310 nM	173 nM	
SMFEPEREKV						Kd (HLA-A*02:03; [5]): 140 nM

Sequence	Kd (HLA-A*03:01; [3])	Kd (HLA-A*11:01; [3])	Kd (HLA-A*31:01; [3])	Kd (HLA-A*33:01; [3])	Kd (HLA-A*68:01; [3])	other results
AQPCSDKAYK						Kd (HLA-A*03:01; [2]): 319 nM; Kd (HLA-A*11:01; [2]): 67.6 nM; Kd (HLA-A*31:01; [2]): 1130 nM; Kd (HLA-A*33:01; [2]): 9490 nM; Kd (HLA-A*68:01; [2]): 6260 nM
VFLILCFTIK						Kd (HLA-A*03:01; [2]): 168 nM; Kd (HLA-A*11:01; [2]): 371 nM; Kd (HLA-A*31:01; [2]): 613 nM; Kd (HLA-A*33:01; [2]): 4070 nM; Kd (HLA-A*68:01; [2]): 965 nM
TLISSDGAR	4090 nM	1400 nM	80.3 nM	198 nM	5.13 nM	
RMLFTSTNDK	3.92 nM	1.54 nM	112 nM	15100 nM	35.6 nM	
PLHILASNK	161 nM	6420 nM	12500 nM	≥ 77700 nM	11400 nM	
FIHMVRCCK	267 nM	2010 nM	421 nM	360 nM	6.32 nM	
DLKWARFPK						Kd (HLA-A*03:01; [2]): 5640 nM; Kd (HLA-A*11:01; [2]): 714 nM; Kd (HLA-A*31:01; [2]): 391 nM; Kd (HLA-A*33:01; [2]): 20 nM; Kd (HLA-A*68:01; [2]): 51.5 nM
VVENPTIQK						Kd (HLA-A*03:01; [2]): 328 nM; Kd (HLA-A*11:01; [2]): 7.63 nM; Kd (HLA-A*31:01; [2]): 18700 nM; Kd (HLA-A*33:01; [2]): ≥ 64100 nM; Kd (HLA-A*68:01; [2]): 407 nM
NSEYIESKAK	5890 nM	1960 nM	≥ 34200 nM	≥ 30600 nM	4190 nM	
DKYGWLCKMH						Kd (HLA-A*03:01; [6]): ≥ 70000 nM; Kd (HLA-A*11:01; [6]): ≥ 69700 nM; Kd (HLA-A*31:01; [6]): ≥ 59200 nM; Kd (HLA-A*33:01; [6]): ≥ 70000 nM; Kd (HLA-A*68:01; [6]): ≥ 70100 nM
GVSGNIVSSV						Kd (HLA-A*02:03; [1]): 30.6 nM
SFSNTIQSYK	117 nM	130 nM	220 nM	12200 nM	177 nM	
TSVSAKQLR	≥ 78000 nM	2810 nM	2600 nM	9110 nM	11.2 nM	
DAYNIADAAR	16000 nM	613 nM	19.2 nM	0.812 nM	1.28 nM	
IIKLPTLFGR	89.2 nM	137 nM	0.251 nM	17.3 nM	69.6 nM	
NQATVLMGL						Kd (HLA-A*02:06; [5]): 10.6 nM
LLSIVVDINK	485 nM	35.9 nM	1090 nM	10500 nM	110 nM	
RCHDHYLCR						Kd (HLA-A*03:01; [6]): ≥ 22300 nM; Kd (HLA-A*11:01; [6]): ≥ 25700 nM; Kd (HLA-A*31:01; [6]): 907 nM; Kd (HLA-A*33:01; [6]): ≥ 35600 nM; Kd (HLA-A*68:01; [6]): ≥ 10000 nM
